Data on 23 molecules can be found in patent US20220282255, “APTAMER FOR TGF-BETA1 AND USE OF SAME” (RIBOMIC INC., published 2022).

Residue numbers refer to the chain shown, from its start.

B1: SEQ ID NO: 20 (ssRNA)
RNA: GGGAGAACUUGGAGCUGGUCCGGAAACUGGAUUCUCUCUAAAAGGGGUACCAGUGCGACGUCAGUC
modifications: 2'-F all pyrimidines (U,C)
B2: SEQ ID NO: 5 (ssRNA)
RNA: GGGAUCCGCAUCUAGAGUACAUCGUGGCGGGAAAGCCGCCCCAUUCUCUCGGGUCCUAGAAACGUCUACUGAAGCUAUCA
modifications: 2'-F all pyrimidines (U,C)
B3: SEQ ID NO: 11 (ssRNA)
RNA: GGGAUCCGCAUCUAGAGUACCGCGUGAGCGGCGUCUUGCUAUGACGUAAAGAAUCGUUACAACGUCUACUGAAGCUAUCA
modifications: 2'-F all pyrimidines (U,C)
B4: SEQ ID NO: 28 (ssRNA)
RNA: GGGAAUGCACUAGUGUUCAAUAAACACUAAGUGAUCCUCCUGCAAGCUAUGAAGAACUUAACGGCUCGUAAAGCUUGCACGUCGAGUCAG
modifications: 2'-F all pyrimidines (U,C)
B5: SEQ ID NO: 18 (ssRNA)
RNA: GGGAGAACUUGGAGCUCCCCCUCGCACUUAAUGGGUUCUGUGGCUGGAGAAAGUGCGACGUCAGUC
modifications: 2'-F all pyrimidines (U,C)
B6: SEQ ID NO: 22 (ssRNA)
RNA: GGGAGAACUUGGAGCUUGACGGCGCUACAUUAUGCUCCAACGGUACUUUAUAGUGCGACGUCAGUC
modifications: 2'-F all pyrimidines (U,C)
B7: SEQ ID NO: 46 (ssRNA)
RNA: GGCAUAAGGGUGGGGAGACUUGUGGUGGGCAAG
modifications: 2'-F all pyrimidines (U,C)
B8: SEQ ID NO: 43 (ssRNA)
RNA: B7 RNA with U26A
modifications: 2'-F all pyrimidines (U,C)
B9: SEQ ID NO: 48 (ssRNA)
RNA: B7 RNA with U11A, U26C, C30U, G33A
modifications: 2'-F all pyrimidines (U,C)
B10: SEQ ID NO: 47 (ssRNA)
RNA: B7 RNA with U11C
modifications: 2'-F all pyrimidines (U,C)
B11: SEQ ID NO: 44 (ssRNA)
RNA: B7 RNA with U11C, U26A
modifications: 2'-F all pyrimidines (U,C)
B12: SEQ ID NO: 45 (ssRNA)
RNA: B7 RNA with U11A
modifications: 2'-F all pyrimidines (U,C)
B13: SEQ ID NO: 36 (ssRNA)
RNA: GGGAGAACUUGGAGCUCCUGAAUAAGGGAGGGGAGACUUGUGGAGGGCAAAAGUGCGACGUCAGUC
modifications: 2'-F all pyrimidines (U,C)
B14: SEQ ID NO: 4 (ssRNA)
RNA: GGGAUCCGCAUCUAGAGUACUAAGGGUGGGGAGACUUGGGCCGGGCAGUCAGACGCGUGAAACGUCUACUGAAGCUAUCA
modifications: 2'-F all pyrimidines (U,C)
B15: SEQ ID NO: 19 (ssRNA)
RNA: GGGAGAACUUGGAGCUCCCCCUCGCAUUCGGAUUAAUUUGUGACUGCAUUGAGUGCGACGUCAGUC
modifications: 2'-F all pyrimidines (U,C)
B16: SEQ ID NO: 42(2-3) (ssRNA)
RNA: B7 RNA with U11A, U26A
modifications: 2'-OMe at A4, A11; 2'-F all pyrimidines
B17: SEQ ID NO: 42(2-6) (ssRNA)
RNA: B7 RNA with U11A, U26A
modifications: 2'-OMe at A11, A31; 2'-F all pyrimidines
B18: SEQ ID NO: 42(2-8) (ssRNA)
RNA: B7 RNA with U11A, U26A
modifications: 2'-OMe at A11, G33; 2'-F all pyrimidines
B19: SEQ ID NO: 42(2-7) (ssRNA)
RNA: B7 RNA with U11A, U26A
modifications: 2'-OMe at A11, A32; 2'-F all pyrimidines
B20: SEQ ID NO: 42(2-1) (ssRNA)
RNA: B7 RNA with U11A, U26A
modifications: 2'-OMe at A11, A26; 2'-F all pyrimidines
B21: SEQ ID NO: 42(2-5) (ssRNA)
RNA: B7 RNA with U11A, U26A
modifications: 2'-OMe at A11, G17; 2'-F all pyrimidines
B22: SEQ ID NO: 42(2-4) (ssRNA)
RNA: B7 RNA with U11A, U26A
modifications: 2'-OMe at A11, A16; 2'-F all pyrimidines
B23: SEQ ID NO: 42(2-2) (ssRNA)
RNA: B7 RNA with U11A, U26A
modifications: 2'-OMe at G1, A11; 2'-F all pyrimidines

For the first series, the target named is T1, TGF-β1 (Homo sapiens, UniProt P01137 P01137:279-390). In words: SPR; ++. The conditions noted are these: tags: Recombinant Human TGF-β1, Peprotech; chain copies: 2 (homodimer, inferred). A general note: Surface plasmon resonance follows binding to a sensor surface in real time, without labels.
T1 sequence (P01137 279-390, one chain of several): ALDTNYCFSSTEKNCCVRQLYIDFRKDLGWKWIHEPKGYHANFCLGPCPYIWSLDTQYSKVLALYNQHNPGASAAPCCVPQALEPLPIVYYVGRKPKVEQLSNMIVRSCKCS
With B1, the binding result is recorded as “binds”.

As for B2, the binding result is “binds”.

On to B3, for which the binding result is given as “binds”.

Regarding B4, the binding result was “binds”.

For B5, the binding result is given as “binds”.

For B6, the binding result is given as “binds”.

The target of a further series is T1, TGF-β1. Nature of the series: SPR; receptor-binding inhibition, 4 nM:4 nM. The conditions noted are these: tags: Recombinant Human TGF-β1, Peprotech; chain copies: 2 (homodimer, inferred). The protocol:
(§1) Measurement of Inhibitory Activity of Aptamer Against TGF-β1-2 Whether or not the nucleic acids of SEQ ID NOs: 6, 9, 19, 21, 26 inhibit the binding of TGF-β1 to the TGF-β receptor was evaluated by surface plasmon resonance method. For the measurement, Biacore T200 manufactured by GE Healthcare was used, and the measurement was performed by the method shown below. About 1500 RU of protein A was immobilized on the surface of a sensor chip of CM4 chip by using an amine coupling kit. 20 μL of Fc fusion TRII receptor (R&D) adjusted to 30 nM was injected as an analyte at a flow rate of 20 μL/min. As a result, the Fc fusion TRII receptor was immobilized on the surface of the sensor chip of the CM4 chip via protein A. Furthermore, a mixed solution of TGF-β1 (4 nM) or TGF-β1 (10 nM), and nucleic acid (30 nM) was injected. Solution A was used as the running buffer. Based on the RU value of a sample injected with TGF-β1 alone and the RU value before injection of TGF-β1, the effect of suppressing an increase in the RU value when TGF-β1 was injected in the presence of nucleic acid was calculated as the effect of inhibiting the binding of TGF-β1 to the TRII receptor.
The nucleic acids of SEQ ID NOs: 42-48 used were chemically synthesized and purified by HPLC. Whether or not these nucleic acids inhibit the binding of TGF-β1 to the TGF-β receptor was determined by injecting a mixed solution of TGF-β1 (4 nM) and nucleic acid (4 nM) in the same manner as in Example 4, and evaluating by the surface plasmon resonance method.
With B7, the binding signal is 99.2 % inhibition.

In the case of B8, the binding signal was found to be 99 % inhibition.

Take B9: the binding signal was 93.5 % inhibition.

Regarding B10, the binding signal came out at 99.2 % inhibition.

For B11, the binding signal was 98.7 % inhibition.

For B12, the binding signal was 99.2 % inhibition.

A further series concerns the target T1, TGF-β1. In words: cell_activity; 80 pM:20 nM. The conditions noted are these: tags: Recombinant Human TGF-β1, Peprotech; chain copies: 2 (homodimer, inferred); G4 (predicted). The protocol: (§2) Whether the nucleic acids of SEQ ID NOs: 4-13, 17-22, 26-28 inhibit the activity of TGF-β1 was evaluated by a cell assay system that monitors Smad signaling pathway known to be activated by the stimulation of TGF-β. To be specific, photinus luciferase equipped with SBE (Smad-binding element) in the promoter region was used as a reporter (pGL4.48[luc2P/SBE/Hygro] Vector, Promega KK). Together with this SBE-induced photinus luciferase reporter plasmid, a renillaluciferase expression plasmid (pGL4.74[hRluc/TK] Vector, Promega KK) was mixed at a ratio of 20:1 as a standardized control for transfection efficiency, and transfected into HEK293 cells. The transfected HEK293 cells were re-seeded in a 96-well plate and cultured until confluent. TGF-β1 and a mixture of nucleic acid aptamers of SEQ ID NOs: 4-13, 17-22, 26-28 synthesized using T7 RNA polymerase (Y639F) were added thereto to respective final concentrations of 80 pM, 20 nM, and the cells were cultured for 3 hr. Thereafter, the expression levels of photinus luciferase and renillaluciferase were confirmed using Dual-Luciferase (registered trade mark) Reporter Assay System (Promega KK). The measurement value of photinus luciferase in each sample was corrected with the measured value of renillaluciferase, and the relative expression level of each sample was calculated by setting the ratio of photinus luciferase and renillaluciferase in a sample free of addition of TGF-β1 as 1. […] When a nucleic acid pool of 35N, 40N or 50N (SEQ ID NO: 14, 1, 23) was used as a negative control and a known TGF-β antibody (R&D, MAB1835) was used as a positive control, the same treatment and measurement were performed.
Whether or not these nucleic acids inhibit the activity of TGF-β1 was evaluated by a luciferase reporter assay similar to that in Example 4, as in Example 1.
Take B13: the activity was 101 % inhibition.

In another series the target is T1, TGF-β1. In words: cell_activity; SBE-luciferase HEK293, 80 pM:20 nM. The settings on record: tags: Recombinant Human TGF-β1, Peprotech; chain copies: 2 (homodimer, inferred). As to the method: as §2
On to B14, for which the activity worked out at 63 % inhibition.

Consider B15, for which the activity was determined as 91 % inhibition.

The target of a further series is T1, TGF-β1. Nature of the series: SPR; receptor-binding inhibition, 4 nM:4 nM. The conditions noted are these: tags: Recombinant Human TGF-β1, Peprotech; chain copies: 2 (homodimer, inferred). The source holds these as a separate data set. As to the method:
as §1
The nucleic acids of SEQ ID NOs: 42(2-1)-42(2-8) used were chemically synthesized and purified by HPLC. Whether or not these nucleic acids inhibit the binding of TGF-β1 to the TGF-β receptor was determined by injecting a mixed solution of TGF-β1 (4 nM) and nucleic acid (4 nM) in the same manner as in Example 4, and evaluating by the surface plasmon resonance method. Whether or not these nucleic acids inhibit the activity of TGF-β1 was evaluated by adding to the final concentrations of TGF-β1 (80 pM) and nucleic acid (312.5 pM), and by a luciferase reporter assay as in Example 4.
Turning to B16, the binding signal turned out to be 70.7 % inhibition.

Turning to B17, the binding signal was determined as 81.8 % inhibition.

Turning to B18, the binding signal amounted to 83 % inhibition.

With B19, the binding signal was determined as 78.9 % inhibition.

Turning to B20, the binding signal is 75.2 % inhibition.

Take B21: the binding signal stood at 75.6 % inhibition.

Take B22: the binding signal amounted to 84.2 % inhibition.

As to B23, the binding signal was 76 % inhibition.

Another series has as its target T1, TGF-β1. Nature of the series: cell_activity; 80 pM:312.5 pM. The settings on record: tags: Recombinant Human TGF-β1, Peprotech; chain copies: 2 (homodimer, inferred). The protocol: as §2
Whether or not these nucleic acids inhibit the activity of TGF-β1 was evaluated by adding to the final concentrations of TGF-β1 (80 pM) and nucleic acid (312.5 pM), and by a luciferase reporter assay as in Example 4.
On to B7, for which the activity was determined as 57.3 % inhibition.

B8: the activity was determined as 71.5 % inhibition.

Take B9: the activity amounted to 63.9 % inhibition.

Turning to B10, the activity worked out at 70.3 % inhibition.

For the molecule B11, the activity came to 69.4 % inhibition.

As for B12, the activity was found to be 65.5 % inhibition.

Another series addresses T1, TGF-β1. In words: cell_activity; 80 pM:312.5 pM. The conditions noted are these: tags: Recombinant Human TGF-β1, Peprotech; chain copies: 2 (homodimer, inferred). This is another data set of the same source. The protocol:
as §2, with “TGF-β1 and a mixture of nucleic acid aptamers of SEQ ID NOs: 4-13, 17-22, 26-28 synthesized using T7 RNA polymerase (Y639F) were added thereto to respective final concentrations of 80 pM, 20 nM, and the cells were cultured for 3 hr.” left out
The nucleic acids of SEQ ID NOs: 42(2-1)-42(2-8) used were chemically synthesized and purified by HPLC. Whether or not these nucleic acids inhibit the binding of TGF-β1 to the TGF-β receptor was determined by injecting a mixed solution of TGF-β1 (4 nM) and nucleic acid (4 nM) in the same manner as in Example 4, and evaluating by the surface plasmon resonance method.
Turning to B16, the activity came to 66 % inhibition.

In the case of B17, the activity is 72 % inhibition.

For B18, the activity was 72 % inhibition.

Regarding B19, the activity is 78 % inhibition.

B20: the activity amounted to 61 % inhibition.

As to B21, the activity came out at 62 % inhibition.

Regarding B22, the activity was 64 % inhibition.

B23: the activity was 66 % inhibition.
